According to patent US12012446B2, “Epstein-Barr virus antibodies and uses thereof” (priority 2017, dated 2024):

Legend:
[1] = tested on: EBV; conditions: SCID mice with PBMC from EBV-naïve donors; cited from earlier work
[2] = tested on: goat anti-mouse IgG; assay: ELISA for reactivity to anti-mouse IgG (HAMA testing); format: binding; conditions: 10 μg/ml antibody on gp350-coated plates
Description: (§1) ClustalW alignment of heavy chain (i) and light chain (ii) variable region amino acid sequences. Murine 72A1 heavy chain and light chain AA sequences are represented by SEQ ID NOs: 178 and 179, respectively, and humanized 72A1 heavy chain and light chain AA sequences are represented by SEQ ID NOs: 180 and 181, respectively. Regions of identical sequence are represented by *. Regions of similarity are represented by :. […] FIG. 4C: ELISA determining the reactivity of humanized 72A1 to murine IgG. Soluble EBV gp350 protein was used as the target antigen at 0.5 μg/ml. […] Bound antibodies were detected using HRP-conjugated anti-mouse IgG or anti-human IgG (1:2,000). […] Unstained cells and cells stained with secondary goat anti-mouse or anti-human conjugated to AF488 alone were used as negative controls.
(§2) ELISA was performed to determine the reactivity of chimeric and humanized antibodies to murine IgG. Soluble EBV gp350 or gH/gL protein was used as the target antigen at 0.5 μg/ml. […] Bound antibodies were detected using HRP-conjugated anti-mouse IgG or anti-human IgG (1:2,000). […] To determine whether chimeric and humanized anti-gp350 retained the ability to recognize linear epitopes on gp350, lysate from CHO WT cells and CHO cell stably expressing gp350 were analyzed by western blot analysis.

[3] = tested on: EBV; conditions: small phase 1 clinical trial; cited from earlier work
[4] = tested on: EBV gp350 20-mer linear peptides (gp350 regions); format: binding, Epstein-Barr virus; conditions: 10 μg/ml mAb, 10 μg/ml peptide
Protocol: (§3) Forty-five sequential 20-mer linear peptides, covering the whole sequence of gp350 (GenBank: NC_007605.1), with an exception of aa 862-881, were synthesized using a solid phase method and cleaved using a low-high hydrogen fluoride method by the GenicBio, as previously described (58).
(§4) The binding of anti-gp350 mAbs to 45 synthesized 20-mer sequential peptides covering the total length of gp350 was analyzed using indirect ELISA as described (58). Briefly, immunoplates were coated with 50 μl of 10 μg/ml EBV gp350 peptides (forty-five 20-mers) diluted in PBS and incubated overnight at 4° C.; 0.5 μg/ml recombinant EBV gp350 ectodomain protein was used as a positive control. After washing three times with washing buffer (PBS containing 0.05% (v/v) Tween 20), plates were blocked with 100 μl washing buffer containing 3% BSA (blocking buffer), incubated for 1 hour at room temperature, and washed as above. Ten μg/ml purified mAbs were added to each well in triplicate and incubated for 2 hours at room temperature. […] The plates were washed as described above, followed by incubation with goat anti-mouse IgG or goat anti-human IgG HRP-conjugated secondary antibody (1:2,000 diluted in PBS) at room temperature for 1 hour. The plates were washed again and the chromogenic substrate ABTS was added. The reaction was stopped using ABTS peroxidase stop solution. The absorbance was read at an optical density of 405 nm using an ELISA plate reader.
(§5) The peptide library, consisting of 20-mer peptides, covered the entire gp350 protein, with the exception of AA 862-881 (Table 9).
(§6) Purified recombinant gp350 ectodomain was used as a control to validate the binding activity for all of the antibodies used. The overall gp350 sequence was divided into nine different regions consisting of ˜100 AA (FIG. 7).

[5] = biological target: T1, gp350 protein on gp350 expressing CHO cells (Epstein-Barr virus, UniProt P03200); assay: Flow cytometry of CHO cells stably expressing EBV gp350; format: binding; conditions: for type of gp350 epitope recognized (linear / conformational): concluded from flow cytometry and immunoblot
T1 construct: stably co-transfected with full-length pCAGGS-gp350/220 and pCI-puro vector; expressed in transfected cells; host or cells: CHO cells
Protocol: To assess the ability of purified anti-gp350 mAb to detect surface expression of EBV gp350 protein by flow cytometry, CHO cells that stably express EBV gp350 were harvested and stained with purified anti-gp350 (10 μg/ml), followed by AF488 goat anti-mouse IgG secondary antibody. Flow cytometric analysis was performed on a C-6 FC (BD Biosciences) and data was analyzed using FlowJo Cytometry Analysis software (FlowJo, LLC) as described (47). All the experiments were independently repeated three times.
These novel antibodies were analyzed by flow cytometric analysis for surface expression of gp350 protein on 10^6 CHO cells transfected with 1 μg of pCAGGS-gp350. gp350 expressing cells were resuspended in PBS, stained with anti-gp350 mAb, which detects the gp350 ED, followed by secondary Ab goat anti-mouse conjugated to AF488. Additionally, western blot analysis was conducted on untransfected and pCAGGS-gp350 transfected CHO lysate. Anti-gp350 mAb 72A1 was used as a positive control (1:100) and anti-gp350 hybridoma clone supernatants were used at 1:50, and anti-mouse secondary antibody was used at 1:2000.
Flow cytometric analysis of gp350 and gH/gL specificity was performed. CHO wild type cells and gp350 or gH/gL-expressing CHO cells were stained with primary antibodies, followed by secondary goat anti-mouse or anti-human conjugated to AF488. Unstained cells and cells stained with secondary goat anti-mouse or anti-human conjugated to AF488 alone, were used as negative controls.

[6] = tested on: goat anti-human IgG; assay: ELISA for reactivity to anti-human IgG (HAMA testing); format: binding; conditions: 10 μg/ml antibody on gp350-coated plates
Description: as §1, §2

[7] = biological target: T2, EBV gp350 20-mer linear peptides (gp350 regions) (Epstein-Barr virus, UniProt P03200); format: binding
T2 construct: purchased GenicBio; host or cells: chemical solid-phase synthesis
Protocol: as §3, §4, §5, §6

T1 sequence (P03200 whole entry): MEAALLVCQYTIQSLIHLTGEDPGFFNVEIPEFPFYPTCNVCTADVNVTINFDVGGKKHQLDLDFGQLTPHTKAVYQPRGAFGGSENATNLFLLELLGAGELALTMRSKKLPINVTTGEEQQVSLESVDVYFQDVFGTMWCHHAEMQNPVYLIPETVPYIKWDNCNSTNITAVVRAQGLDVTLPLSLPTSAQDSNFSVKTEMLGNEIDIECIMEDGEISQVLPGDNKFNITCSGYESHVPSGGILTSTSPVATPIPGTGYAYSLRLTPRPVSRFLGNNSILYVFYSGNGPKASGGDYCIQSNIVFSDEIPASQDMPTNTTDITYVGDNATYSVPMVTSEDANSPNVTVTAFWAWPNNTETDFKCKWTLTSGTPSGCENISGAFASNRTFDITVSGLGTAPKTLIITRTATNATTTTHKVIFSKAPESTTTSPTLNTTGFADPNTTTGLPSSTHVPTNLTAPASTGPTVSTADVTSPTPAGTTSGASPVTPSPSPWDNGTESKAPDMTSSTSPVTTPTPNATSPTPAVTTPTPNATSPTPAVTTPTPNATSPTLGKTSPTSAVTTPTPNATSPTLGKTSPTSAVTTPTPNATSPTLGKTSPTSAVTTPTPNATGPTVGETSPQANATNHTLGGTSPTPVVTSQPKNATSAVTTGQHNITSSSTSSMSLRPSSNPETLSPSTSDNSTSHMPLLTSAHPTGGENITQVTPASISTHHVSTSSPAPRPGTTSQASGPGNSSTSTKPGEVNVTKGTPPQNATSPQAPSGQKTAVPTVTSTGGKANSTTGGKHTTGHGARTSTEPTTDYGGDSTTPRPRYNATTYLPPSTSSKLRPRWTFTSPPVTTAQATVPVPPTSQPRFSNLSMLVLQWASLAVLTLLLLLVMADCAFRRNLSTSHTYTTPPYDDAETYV
T2 sequence (P03200 142-161): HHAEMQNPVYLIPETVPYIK

Molecule | reactivity to goat anti-mouse IgG above the background (1×PBS) [2] | binding to gp350 region AA 102-201 (linear peptides) [4] | type of gp350 epitope recognized (linear / conformational) [5] | further results
m72A1: EBV anti-gp350 neutralizing mouse antibody purified from HB168 hybridoma (ATCC); SEQ ID NO: 100 / 101 (antibody, V domains shown, heavy chain mAb 72A1; light chain mAb 72A1) VH: PELVKPGTSMKISCKASGSSFTDYTMNWMKQSHGKNLEWIGLINPYNGGTRYNQKFKGKATLTLDKSSSTAYMEVLSLTSEDSAVYYCAGGLRRVNWFAYWGQGTLVSVSAAKTTPPSVYPLAPGSAAQTNSMVTLG VL: QAVLTQESALTTSPGETVTLTCRSSTGAVTTSNYANWVQEKPDHLFTGLIGGTNNRVPGVPARFSGSLIGDKAALTITGAQTEDEAIYFCVLWHSNHWVFGGGTKLTVL | 28 fold | bound |  | protection against EBV and development of EBV+ tumors or PTLD-like lesions [1]: completely protected; reactivity to goat-anti-mouse IgG as compared to goat anti-human IgG [2]: 9 fold; patients developing a hypersensitivity reaction [3]: one; patients who developed human anti-mouse Abs (HAMA) [3]: all 4; short-term protection against acquiring EBV after transplantation [3]: 3 out of 4
HB5: murine anti-EBV gp350 mAb, IgG2a κ; SEQ ID NO: 108 / 109; neutralizing (antibody, V domains shown, heavy chain mAb HB5; light chain mAb HB5, murine anti-EBV gp350 mAb, IgG2a κ; neutralizing) VH: AELVRPGASVKISCKAFGYTFTNHNINWVKQRPGQGLDWIGYINPYNDYTSYNQKFKGKATLTVDKSSNTAYMELSSLTSEDSAVYYCARSEGWLRRGAWFAYWGQGTLVTVSAAKTTAPSVYPLAPVCGDTTGSSVTLG VL: AILSVSPGERVSFSCRASQSIGTSIHWYQQRTNDSPRLLIKYASESISGIPPRFSGSGSGTDFTLSINSVESEDIADYHCQQSNSWPMLTFGAGTKLELKRADAAPTV |  | bound | recognized both linear and conformational epitopes | 
HB11: murine anti-EBV gp350 mAb, IgG1 κ; SEQ ID NO: 120 / 121; neutralizing (antibody, V domains shown, heavy chain mAb HB11; light chain mAb HB11, murine anti-EBV gp350 mAb, IgG1 κ; neutralizing) VH: PSLVKPSQTLSLTCSVTGDSITSGFWNWIRKFPGNKLEYMGYISYSGSTYYNPSLKSRISITRDTSKNQYYLQLNSVTTEDTATYYCARGNGGNYDWYFDVWGAGTTVTVSSAKTTPPSVYPLAPGSAAQTNSMVTLG VL: AIMSASLGEKVTMSCRASSSVNFMNWYQQKSDDSPKLLIYYISNLAPGVPARFSGSGSGNSYSLTISGMEGEDAATYYCQQFTSSPSWTFGGGTKLEIKRADAAPTV |  | bound | recognized both linear and conformational epitopes | 
HB20: murine anti-EBV gp350 mAb, IgG2a κ; SEQ ID NO: 128 / 129; neutralizing (antibody, V domains shown, heavy chain mAb HB20; light chain mAb HB20, murine anti-EBV gp350 mAb, IgG2a κ; neutralizing) VH: ELVKPGASVKLSCKASGYTFTSYWIQWVKQRPGQGLEWIGEINPTNGHTNYNEKFKTKATLTVDKSSSTAYMRLSSLTSEDSAVYYCARNLYYYGRPDYWGQGTSVTVSSAKTTAPSVYPLAPVCGDTTGSSVTLG VL: SSLSASLGDRVTISCRASQDIGNYLNWYQQKPDGTVKLLIYYTSRLHSGVPSRFSGSGSGTDYSLTISNLEQEDIATYFCQQGNALPPTFGGGTKLEIKRADAAPTV |  | bound | only recognized conformational epitopes | 
h72A1: humanized 72A1 IgG1; heavy and light chain SEQ ID NOs: 180 and 181 (antibody, V domains shown) VH: EVQLVESGGGLVQPGGSLRLSCAASGSSFTDYTMNWMRQSPGKGLEWIGLINPYNGGTRYADSVKGRATLSLDKSKNTAYLQMNSLRAEDTAIYYCAGGLRRVNWFAYWGQGTLVTVSS VL: DAQLTQSPILLSASVGDRVTITCRSSTGAVTTSNYANWVQERTNGSFRGLIGGTNNRVPGVPSRFSGSLSGDDATLTISSLQPEDEADYFCVLWHSNHWVFGAGTKVEIKR | did not react at all | bound |  | reactivity to goat anti-human IgG over the background [6]: 2100 fold; recognition of gp350 peptides of the principal neutralizing epitope (142-161) [7]: recognized both native gp350 as well as gp350 peptides that constitute the principal gp350 neutralizing epitope (142-161); Flow cytometry (CHO Cells) ([5]; CHO cells stably expressing gp350 on the surface, native/conformational epitopes): recognized native epitopes of gp350 expressed on CHO cells surface, comparable to m72A1
